According to PMC7728349, “Exploring the Interaction between the SWI/SNF Chromatin Remodeling Complex and the Zinc Finger Factor CTCF” (International Journal of Molecular Sciences, 2020):
“Also recorded” adds a separate entry of the source. Values belong to the molecule of their own block, whether it stands above or below them.

Legend:
[1] = target: T1, CTCF zinc finger domains 1–11 (residues 263–582), MBP-fused (Homo sapiens, UniProt P49711); assay: Biolayer interferometry (BLI), immobilised BRK-BRG1 vs MBP-fused CTCF zinc fingers 1–11; type: binding
T1 construct: CTCF zinc finger domains 1–11 (residues 263–582) and 4–8 (residues 348–494); made in house; host or cells: E. coli BL21
Protocol: (§1) 4.8. Recombinant CTCF Zinc Finger Domains 1–11 and 4–8 Expression and Purification
(§2) The plasmids CTCF-ZF1-11-pMalC2G and CTF-ZF4-8-pMalC2G, obtained as previously reported, were used to transform E. coli BL21 host strain. Transformed colonies were inoculated in LB 0.2% glucose medium and grown a 37 °C, until the culture reached the optical density of 0.6 nm at 600 nm (OD600). At this point of growth, 200 µM ZnSO4 was added to the culture and the expression of the protein was induced by using IPTG 0.3 mM. When the culture reached 0.9 OD600, bacterial cells were harvested by centrifugation. Pellets were resuspended in PBS (pH 7.4) and lysed by sonication on ice. Lysates were centrifuged for 30 min at 27.500 relative centrifugal force and the supernatants containing the expressed proteins were loaded on amylose resin (New England Biolabs, Milan, Italy), according to the manufacturer’s protocol, and incubated overnight under rotation. Following washes with 1X PBS, the purified proteins MBP-CTF-ZF4-8 and MBP-CTCF-ZF1-11 were obtained adding maltose elution buffer (10 mM maltose, 1X PBS). Then, the affinity-purified proteins were loaded onto an HiLoad 26/60 Superdex 75 gel filtration chromatography column (GE Healthcare, Milan, Italy) equilibrated and eluted with PBS. The purified products were finally concentrated using a Amicon Ultra Centrifugal Filter (Merck).
4.9. […]

[2] = target: T2, CTCF zinc finger domains 4–8 (residues 348–494), MBP-fused (Homo sapiens, UniProt P49711); assay: Biolayer interferometry (BLI), immobilised BRK-BRG1 vs MBP-fused CTCF zinc fingers 4–8; type: binding
T2 construct: and 4–8 (residues 348–494) in a bacterial expression system; made in house; host or cells: E. coli BL21
Protocol: as §1, §2
4.9. […]

[3] = tested on: BRK-BRG1 (BRK domain of human BRG1, region 612–656); assay: BLI detection limit, MBP-fused CTCF zinc finger domains on immobilised BRK-BRG1; type: binding; conditions: PBS
Protocol: 4.9. Binding of BRK-BRG1 to Recombinant CTFC Multiple Zinc Finger Domains by Biolayer Interferometry (BLI)
BLI measurements were performed using a BLItz system and ARG2 commercial biosensors (ForteBio, CA, United States), following the manufacturer’s instructions. A reduced volume sample cuvette (4 µL) was used for all the experiments. Assays were performed by immobilizing the synthetic BRK-BRG1 domain on the surface of the sensor chip and exposing it to solutions of recombinant CTFC domain 1–11 or CTCF domains 4–8, both fused to MBP, dissolved in PBS at increasing concentrations. After pre-hydration for 10 min in PBS buffer, the immobilization was achieved by pre-activating the sensor surface for 180 s with EDC/NHS, both in water, at 0.4 M and 0.1 M, respectively. Then, the sensor chip was exposed for 300 s to a solution of BRK-BRG1 at 200 µg/mL in sodium acetate pH 4.5. After extensive washing with buffer, the sensor chip surface was deactivated using 1 M ethanolamine in water pH 8.5 for 180 s. Binding assays were performed after exposure for 30 s to PBS (running buffer) to acquire the initial baseline. Next, the derivatized chip was exposed to the CTFC protein solutions in PBS for 120 s, followed by PBS washes (120 s). Then, the sensor chip was fully regenerated, restoring the baseline, by treatment with a solution of NaOH 5 mM for 10 s and a further wash with PBS. […]

[4] = target: T3, MBP-fused CTCF zinc finger domains 1–11 (residues 263–582) (human, UniProt P49711 263-582); assay: BLI; synthetic BRK-BRG1 immobilised on ARG2 biosensor by EDC/NHS (BLItz); MBP-fused CTCF zinc finger domains as analytes in PBS; free MBP signal subtracted; KD from plateau shifts, one binding site hyperbola; conditions: both partners purified
T3 construct: CTCF zinc finger domains 1-11, residues 263-582; also called MBP-CTCF-ZF1-11; CTCF domains 1–11; source: E. coli BL21, purified (amylose resin, Superdex 75 gel filtration)
T3 sequence (looked up): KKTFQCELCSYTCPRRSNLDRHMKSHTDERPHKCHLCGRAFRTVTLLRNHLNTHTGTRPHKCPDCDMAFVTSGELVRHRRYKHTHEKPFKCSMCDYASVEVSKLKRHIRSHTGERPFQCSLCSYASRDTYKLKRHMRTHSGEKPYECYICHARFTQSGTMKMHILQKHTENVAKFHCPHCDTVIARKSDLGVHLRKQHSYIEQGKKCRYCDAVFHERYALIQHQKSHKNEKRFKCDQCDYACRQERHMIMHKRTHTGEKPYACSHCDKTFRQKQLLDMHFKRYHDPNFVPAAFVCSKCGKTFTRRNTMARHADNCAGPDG

[5] = target: T4, MBP-fused CTCF zinc finger domains 4–8 (residues 348–494) (human, UniProt P49711 348-494); assay: as above; conditions: both partners purified
T4 construct: CTCF zinc finger domains 4-8, residues 348-494; also called MBP-CTF-ZF4-8; CTCF domains 4–8; source: E. coli BL21, purified (amylose resin, Superdex 75 gel filtration)
T4 sequence (looked up): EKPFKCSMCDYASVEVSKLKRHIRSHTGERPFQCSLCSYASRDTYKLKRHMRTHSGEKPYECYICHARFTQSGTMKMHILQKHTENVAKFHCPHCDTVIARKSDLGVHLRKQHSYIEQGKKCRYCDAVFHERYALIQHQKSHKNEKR

[6] = Precipitation of MBP-fused CTCF domains 1–11 in PBS; type: physicochemical; conditions: concentrations higher than 3.0 µM
Protocol: as §2, with “(Merck). […]” for “(Merck).”

Molecule: Ac-MSDLPVKVIHVESGKILTGTDAPKAGQLEAWLEMNPGYEVAPRSD-NH2 [BRK-BRG1]
direct binding to CTCF zinc finger region 1–11, result in words [1]: binds the CTCF region including the eleven zinc finger domains
direct binding to CTCF zinc fingers 4–8, result in words [2]: direct binding; also recorded: the region encompassing domains from 4 to 8 strongly contributes to this interaction; also recorded: binds the zinc finger motifs 4–8 of CTCF

B1: MBP-fused CTFC domain 4–8: recombinant maltose-binding protein (MBP)-fused CTCF zinc finger domains 4–8 (residues 348–494) (protein)
chain: T4 sequence (looked up)
modifications: left off: MBP, end not stated, kept
BLI shift at low concentration, domains 4–8 ([3]; solutions at concentrations below 10 nM): No shifts were measured

Kd [4]: ~2300 nM
Kd [5]: ~95 nM
B2: BRK domain of BRG1, region 612–656, synthetic polypeptide (peptide)
chain: Ac-MSDLPVKVIHVESGKILTGTDAPKAGQLEAWLEMNPGYEVAPRSD-NH2
notes: BRK domain of human BRG1, region 612-656; Coupled to the BLI sensor by EDC/NHS chemistry; also called BRK-BRG1; BRK-BRG1 domain; source: synthetic peptide (solid phase synthesis, purified by RP-HPLC)

B3: MBP-fused CTFC domains 1–11: recombinant maltose-binding protein (MBP)-fused CTCF zinc finger domains 1–11 (residues 263–582) (protein)
chain: T3 sequence (looked up)
modifications: left off: MBP, end not stated, kept
precipitation of the protein [6]: the protein underwent precipitation
BLI shift at low concentration, domains 1–11 ([3]; solutions at concentrations below 0.5 µM): No shifts were measured
